Residue numbers refer to the chain shown, from its start. Read-outs that look alike come from different tables or passages of the source. Values belong to the binder of their own block, whether it stands above or below them.
Assays:
cynomolgus CCR8 [1] = target: T1, cynomolgus CCR8 (cynomolgus, UniProt O97665 1-356 (rhesus entry)); experiment: FACS, CHO-cynoCCR8
T1 construct: also called cynoCCR8; G7NYJ2_CCR8_MACFA

[2] = target: T2, HUMAN_NTerm_Ys peptide (# 8) (human, Y(SO3) at printed positions 4, 16, 18 (Y3, Y15, Y17 of CCR8); C-terminal K(Biot)); experiment: SPR, peptide on SA chip
T2 construct: sulfated; natural cysteine between TRD and LID replaced by serine
T2 peptide: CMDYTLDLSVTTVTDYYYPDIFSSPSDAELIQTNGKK
Description: (§1) SPR binding assays were performed to systematically evaluate antibody binding to a) non-sulfated vs sulfated antigen, b) TRD vs N term and c) human vs cynomolgus CCR8. SPR binding assays were performed on a Biacore T200 instrument (Cytiva) at 25° C. with assay buffer 1× HBS-EP+(order no. BR100826, Cytiva). Peptides were used as ligands and were captured using their C-terminal biotin label on to a streptavidin coated sensor chip (“Sensor Chip SA”, Order No. BR100398, Cytiva). To this end, a terminal lysine (K) was added at the C-term of each peptide for biotinylation. For the N term of CCR8, the naturally occurring cysteine between TRD and LID domain was replaced by a serine. […] The concentration of analyte in assay buffer was 0.05-10 nM and the measurement was performed in multicycle kinetics mode. The sensor surface was regenerated with glycine pH 2.0 after each cycle. Obtained sensorgrams were double referenced (subtraction of reference flow cell signal and buffer injection) and were fitted to a 1:1 Langmuir binding model to derive kinetic data using the Biacore T200 Evaluation software.

[3] = target: T3, Cyno_TRD_Ys peptide (# 2) (cynomolgus, Y(SO3) at printed positions 4, 16, 18 (Y3, Y15, Y17 of CCR8); C-terminal K(Biot)); experiment: SPR, peptide on SA chip
T3 construct: sulfated
T3 peptide: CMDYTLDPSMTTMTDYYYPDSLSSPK
Description: as §1

[4] = target: T4, HUMAN_TRD_Ys peptide (# 4) (human, Y(SO3) at printed positions 4, 16, 18 (Y3, Y15, Y17 of CCR8); C-terminal K(Biot)); experiment: SPR, peptide on SA chip
T4 construct: sulfated
T4 peptide: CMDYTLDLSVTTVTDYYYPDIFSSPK
Description: as §1

[5] = target: T5, Cyno_NTerm_Ys peptide (# 6) (cynomolgus, Y(SO3) at printed positions 4, 16, 18 (Y3, Y15, Y17 of CCR8); C-terminal K(Biot)); experiment: SPR, peptide on SA chip
T5 construct: sulfated; natural cysteine between TRD and LID replaced by serine
T5 peptide: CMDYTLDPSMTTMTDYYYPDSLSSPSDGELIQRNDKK
Description: as §1

human CCR8 [6] = target: T6, human CCR8 (human, UniProt P51685 1-355); experiment: FACS, CHO-hCCR8
T6 construct: also called hCCR8; P51685_CCR8_HUMAN

human CCR8 [7] = target: T6, human CCR8; experiment: FACS screening, full length human IgG1
cynomolgus CCR8 [8] = target: T1, cynomolgus CCR8; experiment: FACS screening, full length human IgG1
murine CCR8 [9] = target: T7, murine CCR8 (mouse, UniProt P56484 1-353); experiment: cell-based or functional assay
T7 sequence: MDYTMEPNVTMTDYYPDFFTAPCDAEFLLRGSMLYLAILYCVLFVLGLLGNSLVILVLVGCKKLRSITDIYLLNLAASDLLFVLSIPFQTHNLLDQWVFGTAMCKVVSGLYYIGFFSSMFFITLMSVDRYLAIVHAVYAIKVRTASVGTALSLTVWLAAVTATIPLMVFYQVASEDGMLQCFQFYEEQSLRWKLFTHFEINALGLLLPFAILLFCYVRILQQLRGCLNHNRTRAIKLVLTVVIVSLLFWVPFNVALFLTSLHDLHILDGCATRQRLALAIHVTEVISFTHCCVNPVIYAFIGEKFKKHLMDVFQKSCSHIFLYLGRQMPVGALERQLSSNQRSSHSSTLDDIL

human CCR8 [10] = target: T6, human CCR8; experiment: FACS
cynomolgus CCR8 [11] = target: T1, cynomolgus CCR8; experiment: FACS
murine CCR8 [12] = target: T7, murine CCR8; experiment: FACS, CHO-mCCR8
human CCR8 [13] = target: T6, human CCR8; experiment: FACS, HuT78 (endogenous hCCR8)
[14] = target: T8, FcRn of the FcRn column (Roche, Order No. 8128057001); experiment: FcRn affinity chromatography, pH gradient
T8 construct: also called immobilized FcRn
Description: A FcRn column (Roche, Order No. 8128057001; prepacked with approximately 1 mL resin; binding capacity: ≥100 μg IgG) was equilibrated with running buffer A: 20 mM MES/HCl pH 5.5 140 mM NaCl. 30 μL of each antibody (1 mg/mL in equilibration buffer) was applied to the column.

cynomolgus CCR8 [15] = target: T1, cynomolgus CCR8; experiment: FACS, CHO-cynoCCR8; remark: listed apart in the source
human CCR8 [16] = target: T6, human CCR8; experiment: FACS, CHO-hCCR8; remark: listed apart in the source
mouse FcRn = target: T9, mouse FcRn (mouse, UniProt Q61559 22-297, limits assumed); experiment: SPR pH 6.0, FcRn immobilised
T9 sequence (looked up): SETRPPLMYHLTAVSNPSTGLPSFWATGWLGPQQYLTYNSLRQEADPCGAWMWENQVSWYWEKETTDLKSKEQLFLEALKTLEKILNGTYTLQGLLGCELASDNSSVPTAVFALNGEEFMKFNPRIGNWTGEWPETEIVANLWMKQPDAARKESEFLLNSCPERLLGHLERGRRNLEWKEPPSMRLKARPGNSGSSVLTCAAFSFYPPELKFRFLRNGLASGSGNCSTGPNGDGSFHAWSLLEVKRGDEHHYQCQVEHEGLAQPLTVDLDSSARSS

human FcRn = target: T10, human FcRn (human, UniProt P55899 24-297); experiment: SPR pH 6.0, FcRn immobilised
T10 construct: also called neonatal Fc receptor

cynomolgus FcRn = cynomolgus FcRn (cynomolgus, UniProt Q8SPV9 24-297, limits assumed); experiment: SPR pH 6.0, FcRn immobilised
cynomolgus FcRn, sequence (Q8SPV9 24-297 limits assumed, form in doubt): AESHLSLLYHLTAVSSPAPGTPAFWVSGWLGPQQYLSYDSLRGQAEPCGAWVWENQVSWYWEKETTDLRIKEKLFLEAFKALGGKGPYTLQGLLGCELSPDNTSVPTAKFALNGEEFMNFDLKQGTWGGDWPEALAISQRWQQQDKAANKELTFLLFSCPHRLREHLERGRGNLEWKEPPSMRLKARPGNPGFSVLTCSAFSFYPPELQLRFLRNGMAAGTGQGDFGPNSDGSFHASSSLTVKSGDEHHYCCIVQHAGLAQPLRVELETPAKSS

T1 sequence (O97665 other isoform, or with tags, fused parts or gaps): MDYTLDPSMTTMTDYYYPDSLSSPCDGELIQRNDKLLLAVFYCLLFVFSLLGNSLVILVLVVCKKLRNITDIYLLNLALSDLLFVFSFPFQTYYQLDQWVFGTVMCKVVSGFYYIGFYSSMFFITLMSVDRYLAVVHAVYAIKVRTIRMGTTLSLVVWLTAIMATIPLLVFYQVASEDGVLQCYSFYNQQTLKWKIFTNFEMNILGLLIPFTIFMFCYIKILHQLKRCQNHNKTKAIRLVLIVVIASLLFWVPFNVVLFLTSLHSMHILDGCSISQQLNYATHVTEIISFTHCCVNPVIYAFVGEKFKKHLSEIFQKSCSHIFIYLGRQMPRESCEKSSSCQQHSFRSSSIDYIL
T10 sequence (P55899 24-297 limits assumed, form in doubt): as the sequence (Q8SPV9 24-297 limits assumed, form in doubt) above, with D39N, Q44E, S99G, G189S, N190S, M217L, T269S counted along it

EC50 (cynomolgus CCR8 [1]): 1.8 nM
Activity in % [2]: 17%
Kd [2]: ~2.88 nM
koff [2]: ~0.0222 s⁻¹
kon [2]: ~7.69e+06 M⁻¹ s⁻¹
Activity in % [3]: 52.9%
Kd [3]: ~1.39 nM
koff [3]: ~5.87 s⁻¹
kon [3]: ~4.23e+09 M⁻¹ s⁻¹
Activity in % [4]: 23.8%
Kd [4]: ~2.87 nM
koff [4]: ~16 s⁻¹
kon [4]: ~5.56e+09 M⁻¹ s⁻¹
Activity in % [5]: 78.5%
Kd [5]: ~0.868 nM
koff [5]: ~10.7 s⁻¹
EC50 (human CCR8 [6]): 4.8 nM
B1: TPP-21181 (antibody, human IgG1, lambda, V domains shown)
VH: EVQLLESGGGLVQPGGSLRLSCAASGFTFSSYAMSWVRQAPGKGLEWVSGIRWNNGSKGYAGSVKGRFTISRDNSKNTLYLQMNSLRAEDTAVYYCARSGNYYYGYHGMDVWGQGTLVTVSS
VL: QSVLTQPPSASGTPGQRVTISCSGGNSNIGTYFVSWYQQLPGTAPKLLIYTNNQRPSGVPDRFSGSKSGTSASLAISGLRSEDEADYYCETWDSNTRVFGGGTKLTVLG
notes: also called 18205-gl46-hIgG1-wt-Lambda

binding result (human CCR8 [7]): binds
binding result (cynomolgus CCR8 [8]): binds
B2: TPP-17580 (antibody, human IgG1, lambda, V domains shown)
VH: EVQLLESGGGLVQPGGSLRLSCAASGFTFSSYGMHWVRQAPGKGLEWVSGVSWNGSRTRYADSVKGRFTISRDNSKNTLYLQMNSLRAEDTAVYYCTRGSYNSGWYAVSWGQGTLVTVSS
VL: QSVLTQPPSASGTPGQRVTISCSGSSSNIGSYPVNWYQQLPGTAPKLLIYRNNQRPSGVPDRFSGSKSGTSASLAISGLRSEDEADYYCSSYSVTDNLIFGGGTKLTVLG
notes: also called 497A-M193-A08-1-hIgG1Lambda

IC50, Ca flux assay (murine CCR8 [9]): 1.65 nM
binding result (human CCR8 [10]): no binding
binding result (cynomolgus CCR8 [11]): no binding
EC50 (murine CCR8 [12]): 0.7 nM
B3: TPP-14095 (antibody, human IgG1, lambda, V domains shown)
VH: EVQLLESGGGLVQPGGSLRLSCAASGFTFSSYGMHWVRQAPGKGLEWVSAISGSGGSTYYADSVKGRFTISRDNSKNTLYLQMNSLRAEDTAVYYCARGRQLGSWGQGTLVTVSS
VL: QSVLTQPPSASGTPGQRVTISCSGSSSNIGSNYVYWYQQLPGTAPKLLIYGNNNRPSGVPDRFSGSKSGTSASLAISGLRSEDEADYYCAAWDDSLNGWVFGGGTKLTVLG
notes: anti-murine CCR8, human IgG1 lambda; also called 497A-M005-E07-hIgG1Lambda

binding result (human CCR8 [7]): binds
binding result (cynomolgus CCR8 [8]): binds
B4: TPP-17576 (antibody, human IgG1, lambda, V domains shown)
VH: EVQLLESGGGLVQPGGSLRLSCAASGFTFSSYAMSWVRQAPGKGLEWVGRIRSKANSYATAYAASVKGRFTISRDNSKNTLYLQMNSLRAEDTAVYYCTRPLDSWGQGTLVTVSS
VL: QSVLTQPPSASGTPGQRVTISCSGSSSNIGNNAVNWYQQLPGTAPKLLIYRNNQRSSGVPDRFSGSKSGTSASLAISGLRSEDEADYYCQSYDNSLSASVFGGGTKLTVLG
notes: also called 497A-M136-021-1-hIgG1Lambda

binding result (human CCR8 [7]): binds
binding result (cynomolgus CCR8 [8]): binds
B5: TPP-17579 (antibody, human IgG1, lambda, V domains shown)
VH: EVQLLESGGGLVQPGGSLRLSCAASGFTFVTYWMTWVRQAPGKGLEWVSGVSWNGSRTHYVDSVKRRFTISRDNSKNTLYLQMNSLRAEDTAVYYCARYSGYPDYYGMDVWGQGTLVTVSS
VL: B4 VL with S26W, N32D, A33N, N35Y, S56P, N94R, A98G
notes: also called 497A-M180-K04-1-hIgG1Lambda

binding result (human CCR8 [7]): binds
binding result (cynomolgus CCR8 [8]): binds
B6: TPP-17575 (antibody, human IgG1, lambda, V domains shown)
VH: EVQLLESGGGLVQPGGSLRLSCAASGFTFRSYAMHWVRQAPGKGLEWVSLISWDGGSTYYADSVKGRFTISRDNSKNTLYLQMNSLRAEDTAVYYCARGGIGRRPGLEYWGQGTLVTVSS
VL: QSVLTQPPSASGTPGQRVTISCSGSSSNIGNNYVSWYQQLPGTAPKLLIYGNSNRPSGVPDRFSGSKSGTSASLAISGLRSEDEADYYCQTWGTGIRVFGGGTKLTVLG
notes: also called 497A-M181-C17-1-hIgG1Lambda

EC50 (human CCR8 [13]): 3.25 nM
pH at Elution [14]: 7.88 pH
EC50 (cynomolgus CCR8 [15]): 0.535 nM
EC50 (human CCR8 [16]): 1.32 nM
Kd (mouse FcRn): 33 nM
Kd (human FcRn): 29 nM
Kd (cynomolgus FcRn): 30 nM
B7: TPP-27495 (antibody, human IgG1, lambda)
heavy: EVQLLESGGGLVQPGGSLRLSCAASGFTFSSYGMHWVRQAPGKGLEWVSAINWNGGSTGYADSVKGRFTISRDNSKNTLYLQMNSLRAEDTAVYYCARGHHSGYDGRFFDYWGQGTLVTVSSASTKGPSVFPLAPSSKSTSGGTAALGCLVKDYFPEPVTVSWNSGALTSGVHTFPAVLQSSGLYSLSSVVTVPSSSLGTQTYICNVNHKPSNTKVDKKVEPKSCDKTHTCPPCPAPELLGGPSVFLFPPKPKDTLYITREPEVTCVVVDVSHEDPEVKFNWYVDGVEVHNAKTKPREEQYNSTYRVVSVLTVLHQDWLNGKEYKCKVSNKALPAPIEKTISKAKGQPREPQVYTLPPSRDELTKNQVSLTCLVKGFYPSDIAVEWESNGQPENNYKTTPPVLDSDGSFFLYSKLTVDKSRWQQGNVFSCSVMHEALHNHYTQKSLSLSPGK
light: not shown
modifications: 70% afucosylated
notes: also called TPP-27495 (YTE); copies: 2 + 2

binding result (human CCR8 [7]): binds
binding result (cynomolgus CCR8 [8]): binds
B8: TPP-17581 (antibody, human IgG1, lambda, V domains shown)
VH: EVQLLESGGGLVQPGGSLRLSCAASGFTFSNYRMTWVRQAPGKGLEWVSGINWNGGSTGYADSVKGRFTISRDNSKNTLYLQMNSLRAEDTAVYYCARGRFDTRGFYGFDYWGQGTLVTVSS
VL: QSVLTQPPSASGTPGQRVTISCTGSSSNIGAGYDVHWYQQLPGTAPKLLIYSHNQRPSGVPDRFSGSKSGTSASLAISGLRSEDEADYYCSAWDSSLSAWVFGGGTKLTVLG
notes: also called 497A-M177-L03-1-hIgG1Lambda

binding result (human CCR8 [7]): binds
binding result (cynomolgus CCR8 [8]): binds
B9: TPP-18207 (antibody, human IgG1, lambda, V domains shown)
VH: EVQLLESGGGLVQPGGSLRLSCAASGFTFSNAWMSWVRQAPGKGLEWVSGINWNGGSTGYADSVKGRFTISRDNSKNTLYLQMNSLRAEDTAVYYCARTYTGNYGPYFDYWGQGTLVTVSS
VL: B8 VL with S52K, H53N, S91A, S95D, S98R, A99G
notes: also called 001-B08_497A-M301-B18 + 497A-M316-D16-hIgG1Lambda

— US20230250178A1 (published 2023)
